These results are taken from doi:10.1101/2025.07.10.664194 (bioRxiv, 2025).

In this test the target is T1, BcGabija GajA (Bacillus cereus, UniProt J8H9C1 1-578).
T1 construct: also called Bacillus cereus GajA nuclease subunit
T1 sequence: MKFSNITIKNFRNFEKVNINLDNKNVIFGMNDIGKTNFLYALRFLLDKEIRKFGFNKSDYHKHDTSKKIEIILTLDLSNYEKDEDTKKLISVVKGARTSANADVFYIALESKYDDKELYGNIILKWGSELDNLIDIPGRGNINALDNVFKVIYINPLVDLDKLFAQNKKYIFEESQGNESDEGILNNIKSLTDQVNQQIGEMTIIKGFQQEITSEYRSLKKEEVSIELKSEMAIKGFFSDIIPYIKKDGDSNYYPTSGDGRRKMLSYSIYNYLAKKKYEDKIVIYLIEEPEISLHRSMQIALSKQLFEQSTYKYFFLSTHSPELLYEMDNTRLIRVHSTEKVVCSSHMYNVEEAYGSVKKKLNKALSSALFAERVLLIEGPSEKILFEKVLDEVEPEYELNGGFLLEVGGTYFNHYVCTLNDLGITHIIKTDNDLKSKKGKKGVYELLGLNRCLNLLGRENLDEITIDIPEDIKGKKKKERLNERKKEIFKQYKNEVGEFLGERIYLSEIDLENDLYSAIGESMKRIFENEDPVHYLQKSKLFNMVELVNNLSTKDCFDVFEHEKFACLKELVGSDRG
Briefly: mass photometry. To be noted: both partners purified.

B1: BcGabija GajB (natural protein)
chain: MSREQIIKDGGNILVTAGAGSGKTTILVSKIEADLKENKTHYSIAAVTFTNKAAKEIEGRLGYSSRGNFIGTNDGFVESEIIRPFIKDAFGNDYPDNFTAEYFDNQFASYDKGLQVLKYQNILGTYSNPKKNFKFQLALDILKKSLVARQYIFSKYFKIFIDEYQDSDKDMHNLFMYLKDQLKIKLFIVGDPKQSIYIWRGAEPENFNGLIENSTDFNKYHLTSNFRCCQDIQNYSNLFNEETRSLIKEKNEVQNVISIADDMPISDILLKLTEEKQVLNIEAELVILVRRRNQAIEIMKELNEEGFNFIFIPQTPLDRATPNATLLKEVIKYVKNDRYSIYDLAAEIVGNLSSREIKEIQKIINELLVPNINQVLINQVLINLFAKLEITLDTREITAFTEVMMTNEFDIAFDTNEYLHKIFTVHSAKGLEFNQVIITASDYNVHYNRDTNEHYVATTRAKDKLIVIMDNKKYSDYIETLMKELKIKNIIKSI
notes: also called NTPase subunit of BcGabija
Regarding B1, the “stoichiometry N” value was 1 GajA:GajB (4:4).
